The results in this text go back to PMC11206880, “The RNA Helicase Ded1 from Yeast Is Associated with the Signal Recognition Particle and Is Regulated by SRP21” (Molecules, 2024).

For assay [1], the target named is T1, Recombinant Ded1-His (Saccharomyces cerevisiae, UniProt P06634 1-604).
T1 construct: Ded1, DEAD-box RNA helicase of budding yeast, expressed from the pET22b plasmid; also called purified Ded1
As to the kind of experiment: co-IP; as a3, but SRP14, SRP21, SRP54 and Sec65 incubated together with Ded1; recovered with Ded1-specific IgG beads. The following applies: both partners purified.

The target in assay [2] is T1, Recombinant Ded1-His. As to the kind of experiment: co-IP; purified Ded1 (4 µg) incubated with one purified SRP protein (4-6 µg), no RNA, 1x PBS with 2 mM MgCl2, 45 min, 30 °C; recovered with Ded1-specific IgG cross-linked to protein A-Sepharose beads; SDS-PAGE, Coomassie blue. Particulars: both partners purified.

T1 sequence (P06634 whole entry): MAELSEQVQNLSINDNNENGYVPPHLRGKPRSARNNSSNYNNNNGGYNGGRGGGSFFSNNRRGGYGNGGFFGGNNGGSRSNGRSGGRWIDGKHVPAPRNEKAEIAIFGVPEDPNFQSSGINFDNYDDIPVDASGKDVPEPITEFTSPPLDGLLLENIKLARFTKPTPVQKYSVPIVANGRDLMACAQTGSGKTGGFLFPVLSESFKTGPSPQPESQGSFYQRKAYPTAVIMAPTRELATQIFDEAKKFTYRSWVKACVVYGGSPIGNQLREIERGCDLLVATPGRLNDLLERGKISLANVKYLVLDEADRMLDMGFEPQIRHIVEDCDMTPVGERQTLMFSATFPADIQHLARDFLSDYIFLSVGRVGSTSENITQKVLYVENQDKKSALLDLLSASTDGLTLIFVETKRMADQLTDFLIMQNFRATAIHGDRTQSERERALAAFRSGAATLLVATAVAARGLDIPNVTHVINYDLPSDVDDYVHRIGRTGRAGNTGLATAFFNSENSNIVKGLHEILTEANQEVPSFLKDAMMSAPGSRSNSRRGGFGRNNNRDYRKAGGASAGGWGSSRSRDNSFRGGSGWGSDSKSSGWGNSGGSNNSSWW

B1: His-tagged SRP14 (natural protein, yeast (S. cerevisiae), UniProt P38985 1-146, looked up)
chain: MANTGCLSPGAFLSKVPEFFQTANEKHITVRLTAKRLIEHDPVEGNLEFDSTNHPDYDVSKKASEISVSSRSDREYPLLIRMSYGSHDKKTKCSTVVKASELDQFWQEYSSVFKGGMQNLIKKKKKKSKNGTISKTGKKNKVAKKN
notes: SRP14 of yeast, subcloned into the NdeI and XhoI sites of pET22b; source: E. coli Rosetta (DE3), purified (Ni-NTA)
B1: the binding result with Recombinant Ded1-His [1] is listed as “binds”.

B2: His-tagged Sec65 (natural protein, yeast (S. cerevisiae), UniProt P29478 1-273, looked up)
chain: MPRLEEIDDFNDIDDLDMELAELDPSLRTPIAPKITPKVVRSQDQENPAFLPGTNNNSNSNNNSSNEKEQLSFINPKTGKVERSEAISKKDLEEVKRFQVLYPCYFDINRSHKEGRRVPKELAVENPLAKTMADAVRELGILCIFEGEKCHPQDFGNPGRIRVLFKENGQLIGAATKFKGGKRQLMKAVGEYMKRHPTTIESLREIPYGPDFDNIEFKKIPRVKGFKMNEIVPLHSPFLMGHPMTKSVYETPKITAAEKSFKPPKNKYKVVRR
notes: Sec65 of yeast, cloned into the XhoI and BamHI sites of pET19b; source: E. coli Rosetta (DE3), purified (Ni-NTA)
As for B2, the binding result in the assay with Recombinant Ded1-His [2] is given as “binds”.
